Patent US6685945

Tests used:
[1] = test system: OmpL1-PhoA fusion protein [phosphatase: P00634]
[2] = molecular target: OmpL1, 31 kD outer membrane protein of Leptospira alstoni (native protein) (Leptospira alstoni serovar grippotyphosa); assay: immunoelectron microscopy of intact L. alstoni, protein G-colloidal gold (control serum)

OmpL1-PhoA fusion protein [phosphatase: P00634], sequence (P00634 27-471): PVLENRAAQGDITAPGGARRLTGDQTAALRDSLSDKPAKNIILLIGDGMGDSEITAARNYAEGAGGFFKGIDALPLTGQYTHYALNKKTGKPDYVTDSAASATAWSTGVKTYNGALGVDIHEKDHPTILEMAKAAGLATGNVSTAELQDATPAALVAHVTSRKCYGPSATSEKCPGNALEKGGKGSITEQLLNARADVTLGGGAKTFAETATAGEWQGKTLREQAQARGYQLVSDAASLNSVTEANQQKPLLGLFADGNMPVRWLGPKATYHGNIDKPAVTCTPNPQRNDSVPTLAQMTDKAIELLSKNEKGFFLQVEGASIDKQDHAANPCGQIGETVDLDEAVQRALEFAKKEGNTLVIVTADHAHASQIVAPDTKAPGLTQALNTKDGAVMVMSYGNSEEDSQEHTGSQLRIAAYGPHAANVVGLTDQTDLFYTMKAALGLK

Row | Substance | cleavage of the OmpL1-PhoA fusion protein in E. coli IT41 [1] | gold particles per twenty organisms (particles per twenty organisms) [2]
1 | E. coli leader peptidase 1 (strain IT41, temperature sensitive mutation) | Cleavage of the OmpL1-PhoA fusion protein was demonstrated at the permissive temperature of 32° C., but not at the restrictive temperature of 37 °C | 
2 | preimmune serum from the same rabbit as the anti-OmpL1 antiserum (antibody) |  | 1
